Results from patent US20210145935A1.

Experiments:
[1] = biological target: H1N1 pseudotyped lentiviral particles (H1 and N1 from swine H1N1 A/California/04/09) (influenza A virus H1N1 A/California/04/09); test: cell-based or functional assay
[2] = biological target: H3N2 pseudotyped lentiviral particles (H3 from A/Denmark/70/03, N2 from A/Texas/50/2012) (influenza A virus H3N2 A/Denmark/70/03; influenza A virus H3N2 A/Texas/50/2012); test: cell-based or functional assay

Sequence of recombinant vaccinia virus complement control protein (VCP) (P68638 20-263): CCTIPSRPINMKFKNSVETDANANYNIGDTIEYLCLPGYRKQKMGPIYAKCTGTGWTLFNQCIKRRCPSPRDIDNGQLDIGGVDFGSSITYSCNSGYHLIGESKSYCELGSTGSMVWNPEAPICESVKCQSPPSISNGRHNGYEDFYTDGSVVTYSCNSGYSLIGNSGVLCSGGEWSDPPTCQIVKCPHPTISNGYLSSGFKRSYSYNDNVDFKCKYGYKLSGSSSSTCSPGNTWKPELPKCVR

With “recombinant vaccinia virus complement control protein (VCP) (from UniProt P68638 20-263)” the luciferase reporter activity of transduced MDCK cells, 40 µg/ml protein [1] was 45 % reduction and the luciferase reporter activity of transduced MDCK cells, 40 µg/ml protein [2] was 30 % increase.
